According to IntAct's records for PubMed 20059950:

B1: RAC-beta serine/threonine-protein kinase (Homo sapiens), P31751 (parent)
chain: MNEVSVIKEGWLHKRGEYIKTWRPRYFLLKSDGSFIGYKERPEAPDQTLPPLNNFSVAECQLMKTERPRPNTFVIRCLQWTTVIERTFHVDSPDEREEWMRAIQMVANSLKQRAPGEDPMDYKCGSPSDSSTTEEMEVAVSKARAKVTMNDFDYLKLLGKGTFGKVILVREKATGRYYAMKILRKEVIIAKDEVAHTVTESRVLQNTRHPFLTALKYAFQTHDRLCFVMEYANGGELFFHLSRERVFTEERARFYGAEIVSALEYLHSRDVVYRDIKLENLMLDKDGHIKITDFGLCKEGISDGATMKTFCGTPEYLAPEVLEDNDYGRAVDWWGLGVVMYEMMCGRLPFYNQDHERLFELILMEEIRFPRTLSPEAKSLLAGLLKKDPKQRLGGGPSDAKEVMEHRFFLSINWQDVVQKKLLPPFKPQVTSEVDTRYFDDEFTAQSITITPPDRYDSLGLLELDQRTHFPQFSYSASIRE

Variants of: B1
Conditions: with ttc3_human TTC3, P53804
Sequence of ttc3_human TTC3, P53804 (P53804 whole entry): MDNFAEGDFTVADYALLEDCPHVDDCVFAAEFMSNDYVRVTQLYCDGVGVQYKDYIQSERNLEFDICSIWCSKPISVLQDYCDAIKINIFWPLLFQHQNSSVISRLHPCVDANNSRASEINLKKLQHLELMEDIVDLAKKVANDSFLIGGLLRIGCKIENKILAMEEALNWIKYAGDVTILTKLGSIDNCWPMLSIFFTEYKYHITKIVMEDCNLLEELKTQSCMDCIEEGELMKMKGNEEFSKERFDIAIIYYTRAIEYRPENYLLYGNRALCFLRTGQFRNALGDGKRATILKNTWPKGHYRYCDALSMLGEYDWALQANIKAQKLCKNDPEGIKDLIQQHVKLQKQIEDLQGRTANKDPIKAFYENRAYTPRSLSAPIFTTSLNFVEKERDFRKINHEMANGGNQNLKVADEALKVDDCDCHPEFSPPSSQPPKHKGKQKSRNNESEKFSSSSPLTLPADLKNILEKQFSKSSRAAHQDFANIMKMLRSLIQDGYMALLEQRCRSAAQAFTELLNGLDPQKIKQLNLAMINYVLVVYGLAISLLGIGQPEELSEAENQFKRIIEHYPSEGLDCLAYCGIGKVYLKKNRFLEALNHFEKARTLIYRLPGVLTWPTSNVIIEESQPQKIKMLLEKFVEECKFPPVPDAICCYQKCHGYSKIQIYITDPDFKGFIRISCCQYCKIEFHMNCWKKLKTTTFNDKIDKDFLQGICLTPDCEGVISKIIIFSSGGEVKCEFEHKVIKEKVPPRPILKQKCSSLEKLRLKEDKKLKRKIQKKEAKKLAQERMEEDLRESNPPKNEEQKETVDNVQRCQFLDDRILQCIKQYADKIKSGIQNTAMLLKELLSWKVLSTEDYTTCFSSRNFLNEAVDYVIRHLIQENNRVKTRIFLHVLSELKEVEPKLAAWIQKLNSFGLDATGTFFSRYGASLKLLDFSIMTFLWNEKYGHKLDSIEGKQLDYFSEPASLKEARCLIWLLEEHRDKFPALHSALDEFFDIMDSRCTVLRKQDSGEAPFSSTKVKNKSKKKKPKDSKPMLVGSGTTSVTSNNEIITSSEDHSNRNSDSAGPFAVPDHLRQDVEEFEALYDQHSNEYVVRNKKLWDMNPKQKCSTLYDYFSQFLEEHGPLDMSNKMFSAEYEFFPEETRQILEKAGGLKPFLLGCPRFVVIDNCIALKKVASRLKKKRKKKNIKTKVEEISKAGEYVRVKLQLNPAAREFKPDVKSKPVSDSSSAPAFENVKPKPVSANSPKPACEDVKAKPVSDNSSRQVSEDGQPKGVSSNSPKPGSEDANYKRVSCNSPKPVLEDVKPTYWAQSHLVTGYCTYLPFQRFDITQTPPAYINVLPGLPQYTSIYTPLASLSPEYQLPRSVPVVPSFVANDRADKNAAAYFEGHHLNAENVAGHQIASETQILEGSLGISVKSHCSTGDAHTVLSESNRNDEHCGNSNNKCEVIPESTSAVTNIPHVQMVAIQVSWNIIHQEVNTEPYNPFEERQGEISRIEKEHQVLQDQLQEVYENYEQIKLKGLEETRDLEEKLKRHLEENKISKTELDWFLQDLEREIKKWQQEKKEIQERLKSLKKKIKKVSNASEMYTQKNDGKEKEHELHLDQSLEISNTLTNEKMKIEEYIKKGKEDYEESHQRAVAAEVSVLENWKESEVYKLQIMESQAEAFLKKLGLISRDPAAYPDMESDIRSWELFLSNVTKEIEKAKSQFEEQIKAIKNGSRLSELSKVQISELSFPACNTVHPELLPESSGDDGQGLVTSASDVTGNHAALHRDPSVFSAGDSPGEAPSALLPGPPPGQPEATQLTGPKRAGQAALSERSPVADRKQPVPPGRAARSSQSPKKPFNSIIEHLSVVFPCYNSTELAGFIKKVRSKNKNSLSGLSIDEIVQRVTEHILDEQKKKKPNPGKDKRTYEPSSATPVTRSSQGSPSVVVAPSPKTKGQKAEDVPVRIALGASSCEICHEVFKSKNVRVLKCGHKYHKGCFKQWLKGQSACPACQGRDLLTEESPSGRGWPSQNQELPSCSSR

Row | Variant | effect of a mutation on the interaction
1 | T309A;S474A | disrupting interaction strength
